Results published in the Human Domainome abundance scans (Beltran et al. 2025).
± gives the uncertainty stated by the source.

B1: TOX high mobility group box family member 3, residues 256 to 323; numbered along this chain, O15405 (parent)
chain: QKPVSAYALFFRDTQAAIKGQNPNATFGEVSKIVASMWDSLGEEQKQVYKRKTEAAKKEYLKALAAYR

Variants of: B1
Experiment: abundance fitness (aPCA) (normalised: wild type 0, dead -1); higher = more abundant; growth selection in yeast, the domain comes from the species named
Settings: Homo sapiens

| Variant | abundance fitness |
| --- | --- |
| QKPVSPYALFFRDTQAAIKGQNPNATFGEVSKIVASMWDSLGEEQKQVYKRKTEAAKKEYLKALAAYR [A6P] | 0.054 ± 0.059 |
| QKPVSWYALFFRDTQAAIKGQNPNATFGEVSKIVASMWDSLGEEQKQVYKRKTEAAKKEYLKALAAYR [A6W] | -0.848 ± 0.13 |
| QKPVSAYALFFRDTQAAIKGQNPNATFGEVSKIVASMWDSLGEEQKQVYKRKTEAAKKEYLKALASYR [A66S] | 0.061 ± 0.052 |
| QIPVSAYALFFRDTQAAIKGQNPNATFGEVSKIVASMWDSLGEEQKQVYKRKTEAAKKEYLKALAAYR [K2I] | -0.003 ± 0.043 |
| QVPVSAYALFFRDTQAAIKGQNPNATFGEVSKIVASMWDSLGEEQKQVYKRKTEAAKKEYLKALAAYR [K2V] | -0.201 ± 0.059 |
| QFPVSAYALFFRDTQAAIKGQNPNATFGEVSKIVASMWDSLGEEQKQVYKRKTEAAKKEYLKALAAYR [K2F] | -0.083 ± 0.13 |
| QKPVSAYALFFRDTQAAIKGQNPNATFGEVSKIVASMWDSLGEEQKQVYKRKTEAAKKEYLKALSAYR [A65S] | 0.042 ± 0.069 |
| QKPVSAYALFFRDTQAAIKGQNPNATFGEVSKIVASMWDSLGEEQKQVYKRKTEAAKKEYLKMLAAYR [A63M] | -0.178 ± 0.059 |
| QKPVSAYALFFRDTQAAIWGQNPNATFGEVSKIVASMWDSLGEEQKQVYKRKTEAAKKEYLKALAAYR [K19W] | -0.519 ± 0.24 |
| QKPVSAYALFFRDTQAAIKGQNPNATFGEVSKIVKSMWDSLGEEQKQVYKRKTEAAKKEYLKALAAYR [A35K] | -0.024 ± 0.13 |
| QKPVSAYALFFRDTEAAIKGQNPNATFGEVSKIVASMWDSLGEEQKQVYKRKTEAAKKEYLKALAAYR [Q15E] | -0.065 ± 0.066 |
| QKPVSAYALFFRDTFAAIKGQNPNATFGEVSKIVASMWDSLGEEQKQVYKRKTEAAKKEYLKALAAYR [Q15F] | 0.022 ± 0.086 |
| QKPVSAYALFFRDTAAAIKGQNPNATFGEVSKIVASMWDSLGEEQKQVYKRKTEAAKKEYLKALAAYR [Q15A] | -0.512 ± 0.15 |
| QKPVSAYALFFRDTHAAIKGQNPNATFGEVSKIVASMWDSLGEEQKQVYKRKTEAAKKEYLKALAAYR [Q15H] | -0.084 ± 0.14 |
| QKPVSAYALFFRDTCAAIKGQNPNATFGEVSKIVASMWDSLGEEQKQVYKRKTEAAKKEYLKALAAYR [Q15C] | -0.178 ± 0.2 |
| QKPVSAYALFFRDTQAAIKGQNPNATFGEVSKIVAPMWDSLGEEQKQVYKRKTEAAKKEYLKALAAYR [S36P] | -0.587 ± 0.12 |
| QKPVSAYALFFRDTQAAIKGQNPNATFGEVSKIVASMWDSLGEEQKQVYKRKTEAAKKEYLKALAAYW [R68W] | -0.322 ± 0.22 |
| QKPVSAYALFFRDTQAAIKGQNPNATFGEVSKIVASMWDSLGEEQKQVYKRKTEAAKKEYLKALAAYV [R68V] | -0.355 ± 0.063 |
| QKPVSAYALFFRDTQAAIKGQNPNATFGEVSKIVASMWDSLGEEQKQVYKRRTEAAKKEYLKALAAYR [K52R] | 0.008 ± 0.042 |
| QKPVSAYALFFRDTQAAIKGQNPNATFGEVSKIVASMWDSLGEEQKQVYKRNTEAAKKEYLKALAAYR [K52N] | -0.133 ± 0.067 |

| Variant | abundance fitness |
| --- | --- |
| QKPVSAYALFFRDTQAAHKGQNPNATFGEVSKIVASMWDSLGEEQKQVYKRKTEAAKKEYLKALAAYR [I18H] | -0.902 ± 0.34 |
| QKPVSAYALFFRDTQAAVKGQNPNATFGEVSKIVASMWDSLGEEQKQVYKRKTEAAKKEYLKALAAYR [I18V] | 0.012 ± 0.057 |
| QKPVSAYALFFRDTQAAQKGQNPNATFGEVSKIVASMWDSLGEEQKQVYKRKTEAAKKEYLKALAAYR [I18Q] | -0.833 ± 0.21 |
| QKPVSAYALFFRDTQAAIKGQNPNATFGEVSKIVASMWDSLGEEQKQVYKFKTEAAKKEYLKALAAYR [R51F] | -0.256 ± 0.066 |
| QKPVSAIALFFRDTQAAIKGQNPNATFGEVSKIVASMWDSLGEEQKQVYKRKTEAAKKEYLKALAAYR [Y7I] | -0.48 ± 0.14 |
| QKPVSAFALFFRDTQAAIKGQNPNATFGEVSKIVASMWDSLGEEQKQVYKRKTEAAKKEYLKALAAYR [Y7F] | -0.339 ± 0.15 |
| QKPVSAYALFFRDTQAAIKGQNPNATFGEVSKIVASMWDSLGEDQKQVYKRKTEAAKKEYLKALAAYR [E44D] | 0.069 ± 0.067 |
| QKPVSAYALFFRDTQAAIKGQNPNATFGEVSKIVASMWDSLGEEQKQVYKRKTPAAKKEYLKALAAYR [E54P] | -0.118 ± 0.055 |
| QKPVSAYALFFRDTQAAIKGQNPNATFGEVSKIVASMWDSLGEEQKQVYKRKTTAAKKEYLKALAAYR [E54T] | -0.237 ± 0.064 |
| QKPVSAYALFFRDTQAAIKGQNPNATFGEVSKIVASMWDSLGEEQKQVYKRKTMAAKKEYLKALAAYR [E54M] | -0.161 ± 0.064 |
| QKPVSAYALFFRDTQAAIKGQNPNATFGEKSKIVASMWDSLGEEQKQVYKRKTEAAKKEYLKALAAYR [V30K] | -0.702 ± 0.15 |
| QKPVSAYALFFRDTQAAIKGQNPNATFGELSKIVASMWDSLGEEQKQVYKRKTEAAKKEYLKALAAYR [V30L] | -0.119 ± 0.051 |
| QKPVSAYALFFRDTQAAIKPQNPNATFGEVSKIVASMWDSLGEEQKQVYKRKTEAAKKEYLKALAAYR [G20P] | -0.327 ± 0.12 |
| QKPVSAYALFFRDTQAAIKGQNPNATFGEVSKHVASMWDSLGEEQKQVYKRKTEAAKKEYLKALAAYR [I33H] | -0.324 ± 0.1 |
| QKPVSAYALFFRDTQAAIKGQNPNATFGEVSKVVASMWDSLGEEQKQVYKRKTEAAKKEYLKALAAYR [I33V] | -0.159 ± 0.052 |
| QKPVSAYALFFRDTQAAIKGQNPNATFGEVSKWVASMWDSLGEEQKQVYKRKTEAAKKEYLKALAAYR [I33W] | -0.507 ± 0.1 |
| QKPVSAYALFFRDTQAAIKGQNPNATFGEVSKIVASMWDSLGYEQKQVYKRKTEAAKKEYLKALAAYR [E43Y] | 0.076 ± 0.11 |
| QKPVSAYALFFRDTQAAIKGQNPNATFGEVSKIVASMWDSLGWEQKQVYKRKTEAAKKEYLKALAAYR [E43W] | -0.359 ± 0.07 |
| QKPVSAYALGFRDTQAAIKGQNPNATFGEVSKIVASMWDSLGEEQKQVYKRKTEAAKKEYLKALAAYR [F10G] | -0.957 ± 0.14 |
